According to US20100291089A1, “LIGAND OF REGULATING IMMUNE RESPONSE, AND USE THEREOF IN TREATING AN IMMUNE RESPONSE-RELATED DISEASE” (POSTECH ACADEMY-INDUSTRY FOUNDATION, priority 2005, published 2010):
Where no end group is shown, it is not given here. [ ]: non-standard residue; d: D form.

B1: SAA: Serum amyloid A, multi-functional apolipoprotein, 12- to 14-kDa, SEQ ID NO:19 (protein, listed as Homo sapiens)
chain: MKLLTGLVFCSLVLGVSSRSFFSFLGEAFDGARDMWRAYSDMREANYIGSDKYFHARGNYDAAKRGPGGVWAAEAISDARENIQRFFGHGAEDSLADQAANEWGRSGKDPNHFRPAGLPEKY

How the values were obtained:
RA FLS [1] = test: Apoptosis assay (MTT, DNA fragmentation ELISA) in RA FLS; format: cell-based, human; details: for serum starvation-induced apoptosis (MTT assay, DNA fragmentation ELISA): 72 h
Procedure: Synoviocyte apoptosis was induced via 3 days of serum deprivation, or by treating the cells for 12 h with either SNP (0.7 mM) or anti-Fas IgM (0.7 μg/ml) plus cyclohexamide (CHX; 1 μg/ml). The degree of apoptosis was then evaluated via MTT assay and ELISA for DNA fragmentation. In the MTT assay, FLS were seeded in 24-well culture plates at a density of 2×10^4 cells/well. After 96 h of incubation with SAA (SEQ ID NO:19) or media alone, MTT solution was added to each of the wells, and then incubated for 2 additional hours. The reaction was halted via the removal of MTT. Thereafter, DMSO (200 μL) was added in order to solubilize the formazan crystals. The plates were then subjected to 5 minutes of gentle shaking in order to ensure that the crystals had dissolved completely, and the absorbance was read at 540 nm with a microplate reader. The cellular DNA fragmentation assay was conducted using an ELISA kit (Roche Applied Science), based on the quantitative sandwich ELISA principle, using two mouse monoclonal antibodies (Roche Applied Science) targeted against DNA and 5-bromo-2′-deoxyuridine (BrdU).
In brief, the BrdU-labeled DNA fragments of the samples were bound to the immobilized anti-DNA antibody, fixing it within the wells of a microtiter plate. The immune-complexed BrdU-labeled DNA fragments were then denatured and fixed to the surfaces of the plates via the application of microwave irradiation. In the final step, the anti-BrdU peroxidase conjugate was allowed to react with the BrdU that had been incorporated into the DNA. After the removal of the unbound peroxidase conjugates, the quantity of peroxidase bound within the immune complex was determined photometrically, using TMB as a substrate.

RA FLS [2] = test: Cell proliferation assay ([3H]-thymidine incorporation, cell counts) in RA FLS; format: cell-based, human; details: 72 h
Procedure: Fibroblast-like synoviocytes (FLS) were prepared from synovial samples obtained from patients suffering from RA and osteoarthritis (OA), all of whom were also undergoing total joint replacement surgery. The FLS were isolated from the synovial tissues in accordance with a previously described procedure (Cho, C. S., M. L. Cho, S. Y. Min, W. U. Kim, D. J. Min, S. S. Lee, S. H. Park, J. Choe, and H. Y. Kim. 2000. CD40 engagement on synovial fibroblast up-regulates production of vascular endothelial growth factor. J. Immunol. 164: 5055-5061).
In brief, fresh synovial tissues were minced into 2- to 3-mm pieces, then treated for 4 h with 4 mg/ml type I collagenase (Worthington Biochemical), and maintained in Dulbecco's Modified Eagle's Medium (DMEM) containing 10% FBS at 37° C. in an atmosphere containing 5% CO2. […] MH7A cells, the immortalized synoviocytes that harbor the SV40 T antigen, were grown in DMEM supplemented with 10% FBS, as previously described (Miyazawa, K, A. Mori, and H. Okudaira. 1998. Establishment and characterization of a novel human rheumatoid fibroblast-like synoviocyte line, MH7A, immortalized with SV40T antigen. J. Biochem. 124: 1153-1162), and then employed in some of the experiments. Human umbilical vein endothelial cells (HUVECs) were isolated from fresh human umbilical cords via collagenase (Worthington Biochemical) digestion, and then maintained in 20% FBS-containing M-199 medium (Sigma, St. Louis, Mo.), as previously described. All HUVECs were used after no more than five passages.
The RA FLS, OA FLS, and HUVECs were plated onto 24-well culture dishes at a density of 2×10^4 cells/well, and then permitted to attach overnight. After 24 h of serum starvation, the cells were treated for 72 h with a variety of mitogens. [^3H]-thymidine (1 μCi) was added to each of the wells prior to the final 6 h of incubation. Cell growth was also evaluated via cell counts. Control and mitogen-treated cells were harvested by trypsinization, and the number of cells was determined with a hemocytometer, under ×100 magnification.

human neutrophils = test: Intracellular calcium mobilization (fura-2) in human neutrophils; format: cell-based; details: 1 M PACAP27 and 10 nM WKYMVm
Procedure: Neutrophils were stimulated with 1 μM of PACAP27 (SEQ ID NO:1), PACAP38 (SEQ ID NO:2), or VIP (SEQ ID NO:3), and calcium concentrations were measured for 10 min. In order to measure EKR phosphorylation, each peptide hormones was used with 1 μM concentrations for 5 min. For cAMP measurement, each peptide hormones was used with 1 μM concentrations for 10 min.
Intracellular calcium concentrations ([Ca^2+]i) were determined using Grynkiewicz's method with fura-2/AM, as described in “Grynkiewicz, G., M. Poenie, and R. Y. Tsien. 1985. […] J. Biol. Chem. 260:3440-3450”. Briefly, the cells prepared in Example 1.2 were incubated with 3 µM fura-2/AM at 37° C. for 50 minutes in fresh serum free RPMI 1640 medium with continuous stirring. The incubated cells (2×10^6) were aliquoted for each assay in Ca^2+-free Locke's solution (154 mM NaCl, 5.6 mM KCl, 1.2 mM MgCl2, 5 mM HEPES (pH 7.3), 10 mM glucose, and 0.2 mM EGTA). Fluorescence changes at 340 and 380 nm using a common emission wavelength of 500 nm were measured, and fluorescence ratios were converted to [Ca2+]i, as described in above Grynkiewicz, G. et al.

HUVECs = test: HUVEC tube formation assay on Matrigel; format: cell-based, human; details: SAA 5 μM, 18 h
Procedure: The wounding migration and tube formation activity of the HUVECs were measured as previously described (30, 31). In brief, HUVECs plated at confluence on 60-mm culture dishes were wounded with pipette tips, then treated with SAA (SEQ ID NO:19) (0-5 μg/ml), WKYMVm (SEQ ID NO:5) (10 nM), or VEGF (20 ng/ml) in M199 medium, supplemented with 1% serum and 1 mM thymidine. After 12 h of incubation, migration was quantitated via counts of the cells migrating beyond the reference line. […] After 18 h of incubation, the cell morphology was visualized via phase-contrast microscopy and photographed.

aortic rings = test: Rat aorta ring assay; details: ex vivo, 7 days
Procedure: Aortas from male Sprague-Dawley rats were cross-sectioned into rings, and mounted onto polymerized Matrigel dishes. Matrigel (150 μl) was then positioned on top and allowed to gel. After 7 days, the aortic rings, incubated with PBS, SAA (SEQ ID NO:19) (3 and 5 μg/ml), WKYMVm (SEQ ID NO:5) (10 nM), VEGF (20 ng/ml), or FBS (10%) were analyzed under an inverted microscope.

Molecule | serum starvation-induced apoptosis (MTT assay, DNA fragmentation ELISA) (RA FLS [1]) | DNA synthesis activity / proliferation ([3H]-thymidine incorporation) (RA FLS [2]) | calcium signaling on sequential stimulation (cross-desensitization) (human neutrophils) | formation of tube-like structures (HUVECs) | DNA fragmentation induced by SNP (0.7 mM) or anti-Fas (0.7 μg/ml) plus CHX (1 μg/ml) (RA FLS [1]; SAA 3 μM, 12 h) | sprouting of endothelial cells from aortic rings (aortic rings) | cell numbers (RA FLS [2]) | concentration of maximal effect on DNA synthesis (RA FLS [2]) [µM]
WKYMVm: specific agonist peptide for FPRL1, SEQ ID NO:5 (WKYMV[dM]; listed as Homo sapiens) | mitigating starvation-induced cell death | dose-dependent increase | bidirectional desensitization | – | – | – | – | –
B1 | dose-dependent inhibition | increased in a dose-dependent fashion | – | far superior | blocked almost completely | increased as the result of SAA treatment, in a dose-dependent manner | dose-dependently increased | 5
